Source: publication PMC10943247 (The EMBO Journal, 2024)

B1: FNIP1/FLCN complex (complex, human)
chain 1: MAPTLFQKLFSKRTGLGAPGRDARDPDCGFSWPLPEFDPSQIRLIVYQDCERRGRNVLFDSSVKRRNEDISVSKLGSDAQVKVFGKCCQLKPGGDSSSSLDSSVTSSSDIKDQCLKYQGSRCSSDANMLGEMMFGSVAMSYKGSTLKIHQIRSPPQLMLSKVFTARTGSSICGSLNTLQDSLEFINQDNNTLKADNNTVINGLLGNIGLSQFCSPRRAFSEQGPLRLIRSASFFAVHSNPMDMPGRELNEDRDSGIARSASLSSLLITPFPSPNSSLTRSCASSYQRRWRRSQTTSLENGVFPRWSIEESFNLSDESCGPNPGIVRKKKIAIGVIFSLSKDEDENNKFNEFFFSHFPLFESHMNKLKSAIEQAMKMSRRSADASQRSLAYNRIVDALNEFRTTICNLYTMPRIGEPVWLTMMSGTPEKNHLCYRFMKEFTFLMENASKNQFLPALITAVLTNHLAWVPTVMPNGQPPIKIFLEKHSSQSVDMLAKTHPYNPLWAQLGDLYGAIGSPVRLARTVVVGKRQDMVQRLLYFLTYFIRCSELQETHLLENGEDEAIVMPGTVITTTLEKGEIEESEYVLVTMHRNKSSLLFKESEEIRTPNCNCKYCSHPLLGQNVENISQQEREDIQNSSKELLGISDECQMISPSDCQEENAVDVKQYRDKLRTCFDAKLETVVCTGSVPVDKCALSESGLESTEETWQSEKLLDSDSHTGKAMRSTGMVVEKKPPDKIVPASFSCEAAQTKVTFLIGDSMSPDSDTELRSQAVVDQITRHHTKPLKEERGAIDQHQETKQTTKDQSGESDTQNMVSEEPCELPCWNHSDPESMSLFDEYFNDDSIETRTIDDVPFKTSTDSKDHCCMLEFSKILCTKNNKQNNEFCKCIETVPQDSCKTCFPQQDQRDTLSILVPHGDKESSDKKIAVGTEWDIPRNESSDSALGDSESEDTGHDMTRQVSSYYGGEQEDWAEEDEIPFPGSKLIEVSAVQPNIANFGRSLLGGYCSSYVPDFVLQGIGSDERFRQCLMSDLSHAVQHPVLDEPIAEAVCIIADMDKWTVQVASSQRRVTDNKLGKEVLVSSLVSNLLHSTLQLYKHNLSPNFCVMHLEDRLQELYFKSKMLSEYLRGQMRVHVKELGVVLGIESSDLPLLAAVASTHSPYVAQILL
chain 2: MNAIVALCHFCELHGPRTLFCTEVLHAPLPQGDGNEDSPGQGEQAEEEEGGIQMNSRMRAHSPAEGASVESSSPGPKKSDMCEGCRSLAAGHPGYISHDKETSIKYVSHQHPSHPQLFSIVRQACVRSLSCEVCPGREGPIFFGDEQHGFVFSHTFFIKDSLARGFQRWYSIITIMMDRIYLINSWPFLLGKVRGIIDELQGKALKVFEAEQFGCPQRAQRMNTAFTPFLHQRNGNAARSLTSLTSDDNLWACLHTSFAWLLKACGSRLTEKLLEGAPTEDTLVQMEKLADLEEESESWDNSEAEEEEKAPVLPESTEGRELTQGPAESSSLSGCGSWQPRKLPVFKSLRHMRQVLGAPSFRMLAWHVLMGNQVIWKSRDVDLVQSAFEVLRTMLPVGCVRIIPYSSQYEEAYRCNFLGLSPHVQIPPHVLSSEFAVIVEVHAAARSTLHPVGCEDDQSLSKYEFVVTSGSPVAADRVGPTILNKIEAALTNQNLSVDVVDQCLVCLKEEWMNKVKVLFKFTKVDSRPKEDTQKLLSILGASEEDNVKLLKFWMTGLSKTYKSHLMSTVRSPTASESRN
notes: Folliculin (FLCN), human; Calculated mass of the heterodimer printed as 195.8 kDa; also called FNIP1/FLCN heterodimer; source: HEK293F, BacMam baculovirus, purified (Ni-NTA, Strep Trap, TEV, Superose 6); not shown: mCherry, C-terminal, cleaved; His6, C-terminal, cleaved; 2x Strep-tag, C-terminal, cleaved
B2: MBP-BEX2 (natural protein)
chain: MESKEERALNNLIVENVNQENDEKDEKEQVANKGEPLALPLNVSEYCVPRGNRRRFRVRQPILQYRWDIMHRLGEPQARMREENMERIGEEVRQLMEKLREKQLSHSLRAVSTDPPHHDHHDEFCLMP
notes: Protein BEX2, human; source: E. coli BL21(DE3), purified (Ni-NTA, Superdex 200); not shown: MBP, N-terminal, kept

How the values were obtained:
Settings in all cases: both partners purified
[1] = target: T1, RBX1, as the subunit of CRL2^FEM1B (human, UniProt P62877 1-108); assay: cryo-EM structure; neddylated CRL2^FEM1B and FNIP1-FLCN mixed 1:1.2, 1 h at 4 °C, GraFix, 1.38 mg/ml
T1 construct: RING-box protein 1 (RBX1), human; primers RBX1-f/RBX1-r run from the start codon to the stop codon; Seen as a subunit of the complexes m1 and m7 in the cryo-EM structures; source: SF9 insect cells, co-expressed with CUL2, purified; within the reconstituted CRL2^FEM1B complex

[2] = target: T2, CRL2^FEM1B complex with FEM1B^Δ546-553 (FEM1B^DEL), unneddylated (human, UniProt Q13617 1-745; P62877 1-108; Q15370 1-104; Q15369 17-112; Q9UK73 1-627, Δ546-553); assay: grating-coupled interferometry; Creoptix WAVE; MBP-BEX2 and FNIP1/FLCN amine-coupled to 4PCP chips; CRL2^FEM1B injected in a 1:3 dilution series from 1 μM in 10 mM HEPES pH 7.5, 150 mM NaCl, 50 μM ZnCl2, 25 °C; 1:1 kinetics model
T2 construct: Cullin-2 (CUL2), human; primers from the start codon to the last codon; RING-box protein 1 (RBX1), human; primers from the start codon to the stop codon; Elongin-B (ELOB), human, residues 1-104; Elongin-C (ELOC), human, residues 17-112; Protein fem-1 homolog B (FEM1B), human, with residues 546-553 deleted; also called CRL2FEM1B-DEL; source: CUL2/RBX1 from SF9 insect cells and mutant …

[3] = target: T3, CRL2^FEM1B complex with FEM1B^F549R, unneddylated (human, UniProt Q13617 1-745; P62877 1-108; Q15370 1-104; Q15369 17-112; Q9UK73 1-627, F549R); assay: as above
T3 construct: Cullin-2 (CUL2), human; primers from the start codon to the last codon; RING-box protein 1 (RBX1), human; primers from the start codon to the stop codon; Elongin-B (ELOB), human, residues 1-104; Elongin-C (ELOC), human, residues 17-112; Protein fem-1 homolog B (FEM1B), human, F549R; also called CRL2FEM1B-F549R; source: CUL2/RBX1 from SF9 insect cells and mutant FEM1B/ELOB/ELOC from E. coli …

[4] = target: T4, CRL2^FEM1B complex with FEM1B^F549S, unneddylated (human, UniProt Q13617 1-745; P62877 1-108; Q15370 1-104; Q15369 17-112; Q9UK73 1-627, F549S); assay: as above
T4 construct: Cullin-2 (CUL2), human; primers from the start codon to the last codon; RING-box protein 1 (RBX1), human; primers from the start codon to the stop codon; Elongin-B (ELOB), human, residues 1-104; Elongin-C (ELOC), human, residues 17-112; Protein fem-1 homolog B (FEM1B), human, F549S; also called CRL2FEM1B-F549S; source: CUL2/RBX1 from SF9 insect cells and mutant FEM1B/ELOB/ELOC from E. coli …

[5] = target: T5, CRL2^FEM1B complex with FEM1B^F549T, unneddylated (human, UniProt Q13617 1-745; P62877 1-108; Q15370 1-104; Q15369 17-112; Q9UK73 1-627, F549T); assay: as above
T5 construct: Cullin-2 (CUL2), human; primers from the start codon to the last codon; RING-box protein 1 (RBX1), human; primers from the start codon to the stop codon; Elongin-B (ELOB), human, residues 1-104; Elongin-C (ELOC), human, residues 17-112; Protein fem-1 homolog B (FEM1B), human, F549T; also called CRL2FEM1B-F549T; source: CUL2/RBX1 from SF9 insect cells and mutant FEM1B/ELOB/ELOC from E. coli …

[6] = target: T6, CRL2^FEM1B complex with FEM1B^Y275R/L278R, unneddylated (human, UniProt Q13617 1-745; P62877 1-108; Q15370 1-104; Q15369 17-112; Q9UK73 1-627, Y275R | L278R); assay: as above
T6 construct: Cullin-2 (CUL2), human; primers from the start codon to the last codon; RING-box protein 1 (RBX1), human; primers from the start codon to the stop codon; Elongin-B (ELOB), human, residues 1-104; Elongin-C (ELOC), human, residues 17-112; Protein fem-1 homolog B (FEM1B), human, Y275R/L278R; also called CRL2FEM1B-Y275R/L278R; CRL2FEM1B-Y275RL278R; source: CUL2/RBX1 from SF9 insect cells and mutant …

T1 sequence (P62877 whole entry): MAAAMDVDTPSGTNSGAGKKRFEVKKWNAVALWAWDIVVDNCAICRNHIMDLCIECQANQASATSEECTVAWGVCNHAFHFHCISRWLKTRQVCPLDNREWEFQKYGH

Binder	binding result [1]	Kd [2]	Kd [3]	Kd [4]	Kd [5]	Kd [6]
B1	binds	4.72 nM	8.99 nM	17.5 nM	33.3 nM	3.13 nM
B2		6.62 nM	14 nM	23 nM	109 nM	3.99 nM
